Laboratory results reported in US20220242963A1, “B-CELL ACTIVATING CD73 ANTIBODIES” (CORVUS PHARMACEUTICALS, INC., priority 2018, published 2022).

What was measured:
PBMC = test: T cell proliferation and IFN-gamma secretion of healthy donor PBMC cultured with AMP; format: cell-based, human; details: CPI-006 at 500 nM, 3 mM AMP, anti-CD3 and anti-CD28, IL-2; FIGS. 1C-1D
Experimental: (§1) FIG. 1A provides a schematic of CD73 structure. […] Each symbol represents an independent donor.
MDA-MB-231 cells (e.g., available at ATCC® as HTB-26™) were incubated with a human IgG1 isotype control, CPI-006, CPX-016, or adenosine 5′-(α,β-methylene)diphosphate (also known as APCP, which is a small molecule inhibitor of CD73 enzymatic activity), prior to addition of 250 μM of adenosine monophosphate (AMP). Phosphate levels were measured in the cell culture supernatant using the Sensolyte Malachite Green assay kit. Peripheral blood mononuclear cells (PBMC) were isolated from healthy donors and labeled with CellTrace™ Violet (ThermoFisher Scientific) prior to culture with 1 μg/mL anti-CD3 and anti-CD28, 200 units/mL IL-2, 3 mM AMP and indicated treatments (CPI-006 at 500 nM; CPX-016 at 500 nM; human IgG1 isotype control at 890 nM). T cell proliferation was measured by Cell Trace Violet dilution and was defined by gating relative to unstimulated PBMC (FIG. 1C). IFN-gamma production was measured in cell culture supernatants by AlphaLISA (FIG. 1D). Results shown in FIGS. 1B-D illustrate that inhibition of CD73 activity has an agonistic effect on immunomodulatory activity.

CD73 [1] = target: T1, CD73 (Homo sapiens, UniProt P21589); test: CD73 enzymatic activity in MDA-MB-231 xenograft model; format: in vivo; details: MDA-MB-231 human TNBC xenograft model; FIG. 1F
T1 construct: endogenous in cells; host or cells: Whole blood of cancer patients (CD73+ CD8 T cells)
T1 sequence (P21589 27-549): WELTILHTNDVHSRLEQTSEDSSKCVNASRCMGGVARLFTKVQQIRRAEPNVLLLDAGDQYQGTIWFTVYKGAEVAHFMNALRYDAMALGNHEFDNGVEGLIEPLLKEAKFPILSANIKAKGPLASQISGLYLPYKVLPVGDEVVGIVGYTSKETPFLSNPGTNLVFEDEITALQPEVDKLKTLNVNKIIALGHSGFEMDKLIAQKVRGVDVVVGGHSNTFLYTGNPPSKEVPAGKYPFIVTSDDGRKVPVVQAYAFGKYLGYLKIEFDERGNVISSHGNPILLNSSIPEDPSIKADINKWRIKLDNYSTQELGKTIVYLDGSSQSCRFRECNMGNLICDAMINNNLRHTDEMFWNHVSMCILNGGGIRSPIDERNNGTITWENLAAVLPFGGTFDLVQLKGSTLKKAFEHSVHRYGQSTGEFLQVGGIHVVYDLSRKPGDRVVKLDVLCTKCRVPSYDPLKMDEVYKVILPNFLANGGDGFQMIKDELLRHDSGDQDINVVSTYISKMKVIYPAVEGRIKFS
Description: as §1

[2] = Phase 1/1B clinical trial: adverse events, tolerability; format: in vivo, human
Description: The primary objectives of the study were to show safety and tolerability of the active agents, and the second objectives of the study were to identify PK/PD profiles, drug efficacy, and biomarkers. […] The adenosine gene signature was not used to select patients. The dose expansion includes treatment of non-small cell lung cancer, renal cell carcinoma, non-Hodgkin's lymphoma, and other types of cancers (e.g., bladder, prostate, pancreatic, colorectal, squamous cell cancer of the head and neck). CPI-006 was given as a one hour infusion every three weeks, and for the combination treatments 100 mg po BID of ciforadenant was administered. Biomarker assessment was conducted for the effects of CD73 expression in tumors, peripheral blood lymphocyte subsets, antibody occupancy of target, and serum cytokines.
The baseline demographics of the patients are shown in Table 2 below, and the adverse events are shown in Table 3 (where TEAE refers to treatment-related adverse events based on any grade 3 or 4 events, or 2 or more of all grades).

CD73 [3] = target: T1, CD73; test: Occupancy and inhibition of CD73 in a tumor biopsy of a treated colorectal cancer patient; format: in vivo; details: 12 mg/kg, retroperitoneal lesion at trough pre-dose 3, FIG. 5
Experimental: The tumor biopsy was of a retroperitoneal lesion obtained at trough pre-dose 3.
A tumor biopsy taken from a colorectal cancer patient treated with CPI-006 was evaluated for inhibition of CD73 enzymatic activity.

solid tumors = test: Phase 1/1B clinical trial: disease control and tumor size; format: in vivo, human
Description: FIGS. 6A-6B show cancer patients being treated with various doses of CPI-006 alone (FIG. 6A) or a combination therapy of CPI-006 and ciforadenant (FIG. 6B). A cycle is once every 21 days. Disease assessment occurred every 3-4 cycles. […] HDNCK refers to head and neck cancer. mCRPC refers to metastatic castration-resistant prostate cancer. BLADD refers to bladder cancer. PANC refers to pancreatic cancer. COLORECT refers to colorectal cancer. RCC refers to renal cell carcinoma. SD indicates stable disease and PD indicates progressive disease.
The highest line at day 10 represents 1 mg/kg, the second highest line at day 10 represents 3 mg/kg, the second lowest line at day 10 represents 6 mg/kg, and the lowest line at day 10 represents 12 mg/kg.
Cancer patients treated with CPI-006 monotherapy or a combination therapy of CPI-006 and ciforadenant were assessed for disease control.

[4] = cancer patients, monotherapy n = 12, combination n = 8

B1: CPI-006: humanized CD73 antibody, wherein the light chain is SEQ ID NO:8 and the heavy chain is SEQ ID NO:7; IgG1 Fcγ receptor-deficient (antibody, V domains shown)
VH: QVQLVQSGAEVEKPGASVKVSCKASGYTFTSYWITWVRQAPGQGLEWMGDIYPGSGNTNYNEKFKTRVTITADKSTSTAYMELSSLRSEDTAVYYCAKEGGLTTEDYALDYWGQGTLVTV
VL: EIVLTQSPATLSLSPGERATLSCRASKNVSTSGYSYMHWYQQKPGQAPRLLIYLASNLESGIPPRFSGSGYGTDFTLTINNIESEDAAYYFCQHSRELPFTFGQGTKVEIK
Q: With B1 as the molecule, how does the “adenosine-mediated immunosuppression (T-cell proliferation, IFN-gamma secretion)” value (PBMC) read?
A: The value was “relieves adenosine-mediate immunosuppression”.

Q: And the “CD73 enzymatic activity in tumor xenograft” value (CD73 [1])?
A: Its value is “blocks CD73 enzymatic activity”.

Q: And the “Adverse Events Number of Patients: Anemia, All Grades” value [2, 4]?
A: Its value is 1.

Q: And the “Adverse Events Number of Patients: Anemia, Grade 3 or 4” value [2, 4]?
A: Its value is 1.

Q: And the “Adverse Events Number of Patients: Chills, All Grades” value [2, 4]?
A: Its value is 4.

Q: What about the “Adverse Events Number of Patients: Chills, Grade 3 or 4” value [2, 4] of the same molecule?
A: Its value is 0.

Q: What about the “Adverse Events Number of Patients: Diarrhea, All Grades” value [2, 4] of the same molecule?
A: The value was 1.

Q: And the “Adverse Events Number of Patients: Diarrhea, Grade 3 or 4” value [2, 4]?
A: The value was 0.

Q: And the “Adverse Events Number of Patients: Fatigue, All Grades” value [2, 4]?
A: Its value is 2.

Q: And the “Adverse Events Number of Patients: Fatigue, Grade 3 or 4” value [2, 4]?
A: The value was 0.

Q: What about the “Adverse Events Number of Patients: Headache, All Grades” value [2, 4] of the same molecule?
A: Its value is 2.

Q: What about the “Adverse Events Number of Patients: Headache, Grade 3 or 4” value [2, 4] of the same molecule?
A: The value was 0.

Q: What about the “Adverse Events Number of Patients: Infusion-related reaction, All Grades” value [2, 4] of the same molecule?
A: Its value is 2.

Q: And the “Adverse Events Number of Patients: Infusion-related reaction, Grade 3 or 4” value [2, 4]?
A: Its value is 0.

Q: And the “Adverse Events Number of Patients: Nausea, All Grades” value [2, 4]?
A: The value was 3.

Q: What about the “Adverse Events Number of Patients: Nausea, Grade 3 or 4” value [2, 4] of the same molecule?
A: Its value is 0.

Q: What about the “Adverse Events Number of Patients: Pruritus, All Grades” value [2, 4] of the same molecule?
A: Its value is 2.

Q: What about the “Adverse Events Number of Patients: Pruritus, Grade 3 or 4” value [2, 4] of the same molecule?
A: Its value is 0.

Q: What about the “Adverse Events Number of Patients: Subjects with any TEAE, All Grades” value [2, 4] of the same molecule?
A: Its value is 8.

Q: And the “Adverse Events Number of Patients: Subjects with any TEAE, Grade 3 or 4” value [2, 4]?
A: Its value is 1.

Q: And the dose-limiting toxicity ([2]; doses of 1, 3, and 6 mg/kg)?
A: Its dose-limiting toxicity is “no dose-limiting toxicity”.

Q: And the tolerability ([2]; doses of 1, 3, and 6 mg/kg)?
A: Its tolerability is “well tolerated”.

Q: What about the “grade 3/4 adverse events” value ([2]; patients of Table 4, CPI-006 monotherapy 1, 3, 6 mg/kg) of the same molecule?
A: Its value is “No grade 3/4 adverse events were reported”.

Q: And the “CD73 enzymatic activity in tumor biopsy” value (CD73 [3])?
A: The value was “inhibit CD73 enzymatic activity”.

Q: What about the “occupancy of CD73 in tumor biopsy” value (CD73 [3]) of the same molecule?
A: The value was “binds and saturates CD73”.

Q: What about the “size of a prostate tumor” value (solid tumors; after 2 cycles of treatment, i.e., after 42 days, FIG. 7E) of the same molecule?
A: The value was “reduction in the size”.

Q: What about the disease control (solid tumors; cancer patients, cycle once every 21 days, FIGS. 6A-6B) of the same molecule?
A: The disease control was “higher doses of CPI-006 monotherapy provide longer term disease control”.

Q: What about the target lesion (solid tumors; one metastatic prostate cancer patient, 6 mg/kg monotherapy, treatment ongoing through 11 cycles, FIG. 7E) of the same molecule?
A: Its target lesion is “decrease in the target legion”.
